Data: the supplement of paper PMC9112550, “Optimization of the antimicrobial peptide Bac7 by deep mutational scanning” (BMC Biology, 2022)
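Note: peptides expressed intracellularly from a pBAD plasmid library in pooled LB shake-flask culture, induced with 0.3% L-arabinose, DNA abundance read by NGS, three biological replicates, DESeq2 with apeglm shrinkage.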

Each sequence was assayed on Escherichia coli TOP10 (assay: shrunken log2 fold change of peptide-encoding DNA abundance (4.5 h post-induction vs induction); higher = less antimicrobial activity (less host growth inhibition)). Details: time post-induction: 4.5 h; library: site-saturation at positions 5, 18, 19, 20.
In the case of RRIRRRPPRLPRPRPRPKQIPRP, the “shrunken log2 fold change” value is reported as 0.289.
With RRIRRRPPRLPRPRPRPPIIPRP the “shrunken log2 fold change” value was 0.164.
RRIRCRPPRLPRPRPRPKMAPRP was tested, and the “shrunken log2 fold change” value was 0.0796.
RRIRIRPPRLPRPRPRPVAFPRP was tested, and the “shrunken log2 fold change” value was -0.306.
In the case of RRIRDRPPRLPRPRPRPSSYPRP, the “shrunken log2 fold change” value is reported as -0.738.
RRIRGRPPRLPRPRPRPAPPPRP was tested, and the “shrunken log2 fold change” value was 1.07.
RRIRMRPPRLPRPRPRPGNTPRP was tested, and the “shrunken log2 fold change” value was -0.246.
In the case of RRIRWRPPRLPRPRPRPGMKPRP, the “shrunken log2 fold change” value is reported as 0.0023.
With RRIRHRPPRLPRPRPRPHECPRP the “shrunken log2 fold change” value was -0.0277.
For RRIRARPPRLPRPRPRPAQYPRP, the “shrunken log2 fold change” value was 0.175.
RRIRERPPRLPRPRPRPQFHPRP was tested, and the “shrunken log2 fold change” value was -0.629.
In the case of RRIRARPPRLPRPRPRPPACPRP, the “shrunken log2 fold change” value is reported as 0.817.
In the case of RRIRCRPPRLPRPRPRPGPGPRP, the “shrunken log2 fold change” value is reported as 0.709.
RRIRQRPPRLPRPRPRPKQPPRP was tested, and the “shrunken log2 fold change” value was 0.0884.
RRIRERPPRLPRPRPRPTQMPRP was tested, and the “shrunken log2 fold change” value was -0.155.
With RRIRIRPPRLPRPRPRPMSWPRP the “shrunken log2 fold change” value was -0.402.
With RRIRMRPPRLPRPRPRPEYCPRP the “shrunken log2 fold change” value was 0.0929.
RRIRMRPPRLPRPRPRPYVVPRP was tested, and the “shrunken log2 fold change” value was 0.00957.
With RRIRPRPPRLPRPRPRPMMPPRP the “shrunken log2 fold change” value was -0.141.
With RRIRPRPPRLPRPRPRPRCTPRP the “shrunken log2 fold change” value was 0.753.
In the case of RRIRVRPPRLPRPRPRPANAPRP, the “shrunken log2 fold change” value is reported as -0.0677.
RRIRSRPPRLPRPRPRPWEYPRP was tested, and the “shrunken log2 fold change” value was -0.0607.
RRIRWRPPRLPRPRPRPWHVPRP was tested, and the “shrunken log2 fold change” value was -0.201.
RRIRWRPPRLPRPRPRPKFAPRP was tested, and the “shrunken log2 fold change” value was 0.453.
For RRIRNRPPRLPRPRPRPDQMPRP, the “shrunken log2 fold change” value was 0.0898.
RRIRSRPPRLPRPRPRPIKRPRP was tested, and the “shrunken log2 fold change” value was 0.0449.
In the case of RRIRERPPRLPRPRPRPSTMPRP, the “shrunken log2 fold change” value is reported as -0.925.
In the case of RRIRVRPPRLPRPRPRPIMIPRP, the “shrunken log2 fold change” value is reported as -1.08.
RRIRWRPPRLPRPRPRPTAAPRP was tested, and the “shrunken log2 fold change” value was 1.65.
RRIRYRPPRLPRPRPRPIHSPRP was tested, and the “shrunken log2 fold change” value was -0.0447.
With RRIRCRPPRLPRPRPRPCYYPRP the “shrunken log2 fold change” value was -1.31.
In the case of RRIRKRPPRLPRPRPRPRCEPRP, the “shrunken log2 fold change” value is reported as 0.568.
RRIRIRPPRLPRPRPRPQVNPRP was tested, and the “shrunken log2 fold change” value was -0.444.
RRIRARPPRLPRPRPRPEVNPRP was tested, and the “shrunken log2 fold change” value was 0.291.
In the case of RRIRGRPPRLPRPRPRPQWWPRP, the “shrunken log2 fold change” value is reported as 0.53.
With RRIRWRPPRLPRPRPRPGAFPRP the “shrunken log2 fold change” value was 0.3.
In the case of RRIRLRPPRLPRPRPRPEYAPRP, the “shrunken log2 fold change” value is reported as -0.000852.
RRIRIRPPRLPRPRPRPTRAPRP was tested, and the “shrunken log2 fold change” value was 0.561.
RRIRKRPPRLPRPRPRPSIGPRP was tested, and the “shrunken log2 fold change” value was -0.0755.
RRIRYRPPRLPRPRPRPYARPRP was tested, and the “shrunken log2 fold change” value was -0.0987.
RRIRNRPPRLPRPRPRPAFRPRP was tested, and the “shrunken log2 fold change” value was 0.0513.
In the case of RRIRWRPPRLPRPRPRPIHAPRP, the “shrunken log2 fold change” value is reported as 0.0364.
For RRIRNRPPRLPRPRPRPFEEPRP, the “shrunken log2 fold change” value was 0.0129.
With RRIRCRPPRLPRPRPRPTENPRP the “shrunken log2 fold change” value was 0.0623.
In the case of RRIRMRPPRLPRPRPRPTVMPRP, the “shrunken log2 fold change” value is reported as 0.563.
With RRIRPRPPRLPRPRPRPWFHPRP the “shrunken log2 fold change” value was 0.0116.
For RRIRIRPPRLPRPRPRPPKPPRP, the “shrunken log2 fold change” value was 0.0539.
With RRIRVRPPRLPRPRPRPWWHPRP the “shrunken log2 fold change” value was 0.0994.
With RRIRLRPPRLPRPRPRPLRVPRP the “shrunken log2 fold change” value was 0.4.
In the case of RRIRMRPPRLPRPRPRPWGNPRP, the “shrunken log2 fold change” value is reported as -0.00136.
For RRIRRRPPRLPRPRPRPEQFPRP, the “shrunken log2 fold change” value was 0.212.
RRIRERPPRLPRPRPRPMNEPRP was tested, and the “shrunken log2 fold change” value was -0.0835.
With RRIRCRPPRLPRPRPRPHPEPRP the “shrunken log2 fold change” value was -0.168.
In the case of RRIRQRPPRLPRPRPRPRRGPRP, the “shrunken log2 fold change” value is reported as 0.502.
In the case of RRIRMRPPRLPRPRPRPRMSPRP, the “shrunken log2 fold change” value is reported as 0.353.
In the case of RRIRRRPPRLPRPRPRPSHCPRP, the “shrunken log2 fold change” value is reported as -0.041.
RRIRHRPPRLPRPRPRPNKLPRP was tested, and the “shrunken log2 fold change” value was -1.05.
In the case of RRIRLRPPRLPRPRPRPSHFPRP, the “shrunken log2 fold change” value is reported as -0.0938.
For RRIRCRPPRLPRPRPRPYGRPRP, the “shrunken log2 fold change” value was -0.114.
For RRIRTRPPRLPRPRPRPGPNPRP, the “shrunken log2 fold change” value was -0.0314.
RRIRKRPPRLPRPRPRPADPPRP was tested, and the “shrunken log2 fold change” value was -0.0715.
In the case of RRIRIRPPRLPRPRPRPFMTPRP, the “shrunken log2 fold change” value is reported as -1.01.
With RRIRTRPPRLPRPRPRPNNLPRP the “shrunken log2 fold change” value was -0.252.
For RRIRSRPPRLPRPRPRPVTLPRP, the “shrunken log2 fold change” value was -0.167.
RRIRARPPRLPRPRPRPEAYPRP was tested, and the “shrunken log2 fold change” value was 0.114.
For RRIRKRPPRLPRPRPRPSSKPRP, the “shrunken log2 fold change” value was -0.181.
RRIRRRPPRLPRPRPRPWCVPRP was tested, and the “shrunken log2 fold change” value was -0.032.
In the case of RRIRRRPPRLPRPRPRPIHCPRP, the “shrunken log2 fold change” value is reported as -0.0105.
In the case of RRIRQRPPRLPRPRPRPYFDPRP, the “shrunken log2 fold change” value is reported as -0.202.
In the case of RRIRHRPPRLPRPRPRPYGYPRP, the “shrunken log2 fold change” value is reported as -0.22.
In the case of RRIRLRPPRLPRPRPRPRQSPRP, the “shrunken log2 fold change” value is reported as -0.0892.
For RRIRMRPPRLPRPRPRPCMNPRP, the “shrunken log2 fold change” value was -0.217.
With RRIRQRPPRLPRPRPRPTLHPRP the “shrunken log2 fold change” value was 0.0326.
In the case of RRIRGRPPRLPRPRPRPCREPRP, the “shrunken log2 fold change” value is reported as -0.368.
RRIRNRPPRLPRPRPRPWCCPRP was tested, and the “shrunken log2 fold change” value was 0.007.
